The record followed here is patent US20210145878A1.

Experiment [1] deals with CD79b-AF647. The experiment is described as follows: flow cytometry, CAR-transduced primary human T cells stained with recombinant human CD79b extracellular domain-AF647. (In flow cytometry, cells or beads pass a laser one at a time.)
Experiment [2] has as its target recombinant human CD79b isoform-2 (short) (human) (UniProt P40259). The experiment is described as follows: SPR, Biacore 8k; scFv-Fc captured by anti-human Fc, CD79b as analyte; 1:1 Langmuir. (Surface plasmon resonance follows binding to a sensor surface in real time, without labels.)

Chain of CD79b-AF647 (chain, as listed by the source limits assumed): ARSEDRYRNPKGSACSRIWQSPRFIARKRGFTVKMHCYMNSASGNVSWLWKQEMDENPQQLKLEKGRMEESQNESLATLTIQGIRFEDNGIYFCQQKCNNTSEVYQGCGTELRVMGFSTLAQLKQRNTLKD

B1: SN8 #51 (protein, part only; not given: hinge, transmembrane and signaling domains, part only)
CAR polypeptide, part: DIVLTQSPDSLAVSLGERATINCKASQSVDYEGDSFLNWYQQKPGQPPKLLIYAASNLESGVPDRFSGSGSGTDFTLTISSLQAEDVAVYYCQQSNEDPLTFGGGTKVEIKGGSEGKSSGSGSESKSTGGSQVQLVQSGAEVKKPGASVKVSCKASGYTFTGYWIEWVRQAPGQGLEWMGEILPGGGDTNYNQKFQGKVTFTRDTSTSTAYMELSSLRSEDTAVYYCARRVPVYFDYWGQGTLVTVSS
Take B1: the aCD79b CAR+ (frequency of CAR+ cells) in experiment [1] stood at 0.048.

B2: CD9W23 LH scFv-Fc (Fc fusion, not shown: a dimerising Fc or GST)
chain: DIVLTQSPDSLAVSLGERATINCKASQSVDYDGDSFLNWYQQKPGQPPKLLIYAASNLESGVPDRFSGSGSGTDFTLTISSLQAEDVAVYYCQQSNEDPLTFGGGTKVEIKGGSEGKSSGSGSESKSTGGSQVQLVQSGAEVKKPGASVKVSCKASGYTFTGYWIEWVRQRPGQGLEWMGEILPGGGDTNYNQKFQGKVTFTRDTSTSTAYMELSSLRSEDTAVYYCARRVPVYFDYWGQGTLVTVSS
Take B2: in experiment [2], the Kd came out at 11.5 nM.

B3: CD9W59 LH scFv-Fc (Fc fusion, not shown: a dimerising Fc or GST)
chain: DIVLTQSPDSLAVSLGERATINCKASQSVDYDGDSFLNWYQQKPGQPPKLLIYAASNLESGVPDRFSGSGSGTDFTLTISSLQAEDVAVYYCQQSNEDPLTFGGGTKVEIKGGSEGKSSGSGSESKSTGGSQVQLVQSGAEVKKPGASVKVSCKASGYTFTGYWIEWVRQAPGQGLEWMGEILPGGGDTNYNQKFQGKVTFTRDTSTSTVYMELSSLRSEDTAVYYCARRVPVYFDYWGQGTLVTVSS
As for B3, the Kd in experiment [2] is 6.9 nM.

As a reminder, the Kd is the concentration at which binding is half-saturated.
